Experimental data: patent publication US7939057B2, “Methods and compositions for modulating the mobilization of stem cells” (Mount Sinai School of Medicine, priority 2006, dated 2011)

Experiments:
NE = NE content in heart and bone after G-CSF (HPLC); format: in vivo, C57BL/6 mice
Description: Mice were sacrificed and hearts were rapidly removed, weighed, frozen in liquid nitrogen. Tissues were homogenized in HPLC solvent (0.1M TCA, which contains 10^−2 M sodium acetate, 10^−4 M EDTA and 10.5% methanol, pH 3.8). Hindlimb long bones were harvested, weighted, frozen in liquid nitrogen. Pooled bones were crushed using a bessman tissue pulverizer (Spectrum Laboratories) pre-chilled in a liquid nitrogen bath. Pulverized tissues were homogenized (620 mg/ml) in 0.4N HClO4 containing 0.84 mg/mL EDTA and 12.5 μL of 4% sodium pyrosulfite solution. Bone catecholamines were extracted using solid Al203 and then desorbed from the Al203 using 0.1 N acetic acid. NE levels were determined by HPLC at the Neurochemistry Core Lab, Vanderbilt University's Center for Molecular Neuroscience Research (Nashville, Tenn.).

rhCXCL12α = test: Degradation of rhCXCL12α by BMEF of G-CSF-treated mice (Western blot); format: biochemical, human; settings: 24 h at 37° C.
Description: PBS or BMEF (35 μl) from G-CSF-treated and control mice was incubated with 50 ng of rhCXCL12α (R&D Systems) for 24 h at 37° C. The reactions were stopped by the addition of sample buffer containing protease inhibitor cocktail (Sigma) and DTT (final concentration 10 mM) followed by boiling for 5 min at 95° C. Samples were separated by electrophoresis on 16% polyacrylamide Tris-tricine gel and transferred onto PVDF membrane (0.2 μm pore size, Millipore, Bedford, Mass.). Membranes were blocked in TBS with 0.05% Tween 20 and 4% milk, incubated with 0.5 μg/ml of mouse monoclonal anti-CXCL12 antibody (clone 79018.111, R&D Systems) then with 1/20,000 dilution of horseradish peroxidase-anti-mouse IgG (Jackson Immunoresearch, West Grove, Pa.). Signal was detected with the enhanced chemiluminescence method (West Dura Extended Duration Substrate, Pierce, Rockford, Ill.).

bone lining osteoblasts = test: Morphology of bone lining osteoblasts (CD44 immunofluorescence); format: in vivo; settings: G-CSF-treated wild-type C57BL/6 mice
Description: For the morphology of bone lining osteoblasts, femoral bones were fixed overnight in formalin, decalcified in 10% EDTA (pH 7.4) for 48 h, snap-frozen in isopentane chilled in liquid nitrogen, and sectioned at 10 μm thickness. Sections were fixed with 4% parafolmaldehyde for 20 min, stained with anti-CD44 (KM201) followed by donkey Alexa-488-anti-rat IgG (Molecular Probes, Eugene, Oreg.), and mounted in Vectashield Mounting Medium with DAPI (Vector Laboratories). TUNEL assay was done using an In Situ Cell Death Detection Kit (Roche Applied Science, Penzberg, Germany) according to manufacturer's recommendation. Images were captured and analyzed with Olympus BX61WI (Hauppauge, N.Y.) with 60× objective mounted on a motorized X, Y stage and a Z focusing drive (Applied Scientific Instrumentation, Eugene, Oreg.). Images are collected with Coolsnap HQ digital camera (Ropert Scientific, Munich, Germany). A Dell workstation with SlideBook software (Intelligent Imaging Innovations, Denver, Colo.) provided for synchronization of components, data acquisition and image deconvolution.

Runx2 = test: Q-PCR of Runx2 in BMNCs after G-CSF; format: in vivo; settings: bone marrow of Cgt+/+ mice after G-CSF; n=4, p<0.001
Description: Methods, primers and PCR conditions are available in Table S3. Briefly, total RNA was extracted from BMNC using TRIzol solution (Invitrogen, Carlsbad, Calif.). The bone carcass was then immersed in liquid nitrogen, and pulverized into powder followed by RNA extraction with TRIzol. Total RNA (1 μg) was treated with DNaseI (Invitrogen, Carlsbad, Calif.), and reverse transcribed using first strand cDNA synthesis with random primers (Promega, Madison, Wis.). Q-PCR was performed using SYBR Green (Molecular Probes) on an ABI PRISM 7900HT Sequence Detection System (Applied Biosystems, Foster city, CA). All experiments were done in triplicate and normalized to GAPDH.

CXCL12 = CXCL12 protein by ELISA in BMEF and bone extracts after G-CSF; format: in vivo, mice
Description: CXCL12 ELISA was done exactly as described (Petit, I., Szyper-Kravitz, M., Nagler, A., Lahav, M., Peled, A., Habler, L., Ponomaryov, T., Taichman, R. S., Arenzana-Seisdedos, F., Fujii, N., et al. (2002). G-CSF induces stem cell mobilization by decreasing bone marrow SDF-1 and up-regulating CXCR4. Nat Immunol 3, 687-694). Mouse plasma osteocalcin was measured using ELISA kit (Biomedical Technologies Inc., Stoughton, Mass.) according to manufacturer's recommendation.
BMEF was obtained by flushing two femurs with one ml of ice-cold PBS, and the supernatant was harvested after 25 strokes of gentle pipetting followed by centrifugation at 400 g for 5 min. Bone protein extraction was performed as described (Pfeilschifter, J., Laukhuf, F., Muller-Beckmann, B., Blum, W. F., Pfister, T., and Ziegler, R. (1995). Parathyroid hormone increases the concentration of insulin-like growth factor-I and transforming growth factor beta I in rat bone. J Clin Invest 96, 767-774). After extraction, the samples were dialyzed extensively against cold PBS (pH 7.4) for 72 h with a dialysis cassette of 3500 MWCO (Pierce). Volume of dialyzed extracts was measured, centrifuged at 16,000 g for 15 min at 4° C., and the supernatants stored at −80° C. CXCL12 levels in BMEF and bone extracts were determined by ELISA.

B1: G-CSF: recombinant human G-CSF (Filgrastim, Amgen), hematopoietic cytokine used to elicit HSPC mobilization (protein, UniProt P09919 31-207, looked up)
Granulocyte …: TPLGPASSLPQSFLLKCLEQVRKIQGDGAALQEKLVSECATYKLCHPEELVLLGHSLGIPWAPLSSCPSQALQLAGCLSQLHSGLFLYQGLLQALEGISPELGPTLDTLQLDVADFATTIWQQMEELGMAPALQPTQGAMPAFASAFQRRAGGVLVASHLQSFLEVSYRVLRHLAQP
modifications: filgrastim
notes: recombinant human G-CSF (Filgrastim, Amgen), hematopoietic cytokine used to elicit HSPC mobilization
- bone NE levels (NE; 3 h after G-CSF administration (250 μg/kg s.c.)): dramatic reduction
- cardiac NE levels (NE; single dose of G-CSF (250 μg/kg s.c.)): slightly reduced
- degradation of recombinant CXCL12 by BMEF (rhCXCL12α; BMEF from G-CSF-treated Cgt+/+ mice): completely degraded
- degradation of recombinant CXCL12 by BMEF (rhCXCL12α; BMEF from G-CSF-treated Cgt−/− mice): complete degradation
- appearance of bone-lining osteoblasts (bone lining osteoblasts): flattened appearance with shorter projections
- levels of Runx2, reduction (Runx2): 65%
- CXCL12 protein in BMEF (CXCL12; Cgt+/+ and +/− mice after G-CSF injection): greatly reduced
- CXCL12 protein in BMEF (CXCL12; Cgt−/− mice after G-CSF): significantly reduced
- CXCL12 protein levels in bone (CXCL12; Cgt−/− mice following G-CSF): no reduction
- CXCL12 in bone protein extracts (CXCL12; Dbh+/− mice following G-CSF): reduced
- CXCL12 levels in bone protein extracts (CXCL12; Dbh−/− animals following G-CSF): maintained
- CXCL12 protein in bone (CXCL12; normal littermate mice following G-CSF): decreased
